From patent publication US20040146949A1, “Methods and compounds for disruption of CD40R/CD40L signaling in the treatment of alzheimer's disease” (priority 2002, published 2004)

B1: CD40L: CD40L protein (CD40 ligation) added to N2a cells at 2 μg/mL (protein, UniProt P29965 113-261, looked up)
CD40 ligand, soluble form: MQKGDQNPQIAAHVISEASSKTTSVLQWAEKGYYTMSNNLVTLENGKQLTVKRQGLYYIYAQVTFCSNREASSQAPFIASLCLKSPGRFERILLRAANTHSSAKPCGQQSIHLGGVFELQPGASVFVNVTDPSQVSHGTGFTSFGLLKL
B2: Fas ligand: other TNF ligand superfamily member used as ligand control (protein, UniProt P48023 130-281, looked up)
Tumor necrosis factor ligand …: QIGHPSPPPEKKELRKVAHLTGKSNSRSMPLEWEDTYGIVLLSGVKYKKGGLVINETGLYFVYSKVYFRGQSCNNLPLSHKVYMRNSKYPQDLVMMEGKMMSYCTTGQMWARSSYLGAVFNLTSADHLYVNVSELSLVNFEESQTFFGLYKL

Assays:
Type in all cases: cell-based
[1] = test system: N2a cells overexpressing human wild-type APP-695; assay: APP CTFs by Western blot in N2a cells over-expressing APP-695; settings: for alterations in APP CTFs: ligand controls for specificity, data not shown
Method: (§1) FIGS. 9a-f: CD40L modulates APP processing in vivo and in vitro. Fig. a: Brain homogenates were prepared from 12-month-old TgAPPsw/CD40L-deficient, control IgG-treated PSAPP, and anti-CD40L antibody-treated PSAPP animals. Representative lanes are shown from each mouse group. […] Fig. d: Cell lysates were prepared from N2a cells overexpressing human wild-type APP-695 and treated with 2 μg/mL of heat-inactivated CD40L (control) or CD40L protein (CD40 ligation) for 24 hours. […] Fig. f: A-β1-40 and A-β1-42 peptides were analyzed in conditioned media from human wild-type APP-695 overexpressing N2a cells by ELISA (n=3 for each condition). Data are represented as percentage of Aβ peptide secreted 24 hours after CD40 ligation relative to heat-inactivated CD40L treatment. […] Similar results were obtained with antibody 6687 or Chemicon polyclonal APP C-terminal antibody (data not shown).
(§2) We also employed an N2a cell line that stably over-expresses the human wild-type APP-695 transgene (Thinakaran, G., et al., “Metabolism of the Swedish’ amyloid precursor protein variant in neuro2a (N2a) cells, Evidence that cleavage at the ‘beta-secretase’ site occurs in the golgi apparatus,” J. Biol. Chem. 271, 9390-9397 (1996)). […] This effect could be alleviated by co-treatment with anti-CD40L antibody, as we detected anti-CD40L antibody in brains of treated PSAPP mice. To determine whether an incrreased ratio of β-CTF to α-CTF after CD40L treatment might be associated with secretion of Aβ, we measured the latter in conditioned transfected N2a cell media by ELISA. […] To confirm the specificity of this effect, we treated these cells with other TNF ligand superfamily members TNF-α or Fas ligand the additional control ligands transforming growth factor-β1 or neurotrophin.
Western blot (FIGS. 8-9). Mouse brains or cultured cells were lysed in ice-cold lysis buffer as described above, and an aliquot corresponding to 50 μg of total protein was electrophoretically separated using 16.5% Tris-tricine gels (Bio-Rad). Electrophoresed proteins were then transferred to PVDF membranes (Bio-Rad), washed in dH20, and blocked for 1 hour at ambient temperature in Tris-buffered saline (TBS) containing 5% (w/v) of non-fat dry milk. After blocking membranes were hybridized for 1 hour at ambient temperature with various antibodies against the C-terminus of APP or the N-terminus of Aβ. […] Densitometric analysis was performed using the Fluor-S Multilmager™ with Quantity One™ software (Bio-Rad). […] Further β- and γ-secretase activities were quantified in Tg APPsw and Tg APPsw/CD40L def. mice using available kits based on secretase-specific peptides conjugated to fluorgenic reporter molecules (R&D Systems, Minneapolis, Minn., USA). […]

[2] = test system: N2a cells overexpressing human wild-type APP-695; assay: secreted Aβ ELISA in conditioned media of N2a cells over-expressing APP-695; settings: for alterations in secretion of Aβ species: ligand controls for specificity, data not shown
Method: as §1, §2
ELISA analysis (FIGS. 8-9). Mouse brains (Control, Tg APPsw, CD40L def., and Tg APPsw/CD40L def.) were isolated under sterile conditions on ice and placed in ice-cold lysis buffer (containing 20 mM Tris, pH 7.5, 150 mM NaCl, 1 mM EDTA, 1 mM EGTA, 1% v/v Triton X-100, 2.5 mM sodium pyrophosphate, 1 mM β-glycerolphosphate, 1 mM Na3VO4, 1 µg/mL leupeptin, and 1 mM PMSF). Brains were then sonicated on ice for approximately 3 minutes, let stand for 15 minutes at 4° C., and centrifuged at 15,000 rpm for 15 minutes. Total Aβ species were detected by acid extraction of brain homogenates in 5 M guanidine buffer (Johnson-Wood, K. et al., “Amyloid precursor protein processing and A beta42 deposition in a transgenic mouse model of Alzheimer disease,” Proc. Natl. Acad. Sci USA 94, 1550-1555 (1997)), followed by a 1:10 dilution in lysis buffer. Aβ1-40 and Aβ1-42 and total Aβ (estimated by summing Aβ1-40 and Aβ1-42 values) were quantified in these samples using the Aβ1-40 and Aβ1-42 enzyme-linked immunosorbent assay (ELISA) kits (BioSource, Camarillo, Calif., USA) in accordance with the manufacurer's instruction, except that standards were diluted such that the final concentration included 0.5 M guanidine buffer. Total protein was quantified in brain homogenates using the Bio-Rad protein assay (Bio-Rad, Richmond, Calif., USA); thus, ELISA values were reported as ng of Aβ1-x/wet g of brain. For in vitro analysis of Aβ levels, conditioned media from human APP-over-expressing N2a cells were collected and analyzed at a 1:1 dilution using the method described above, and values were rreported as percentage of Aβ1-x secreted relative to control. […]

[3] = test system: N2a cell line that stably overexpresses the human wild-type APP-751 transgene; assay: secreted Aβ in conditioned media of N2a cells overexpressing APP-751; settings: CD40L treatment over time
Text: We have recently identified CD40 on neurons and neuron-like cells (including the N2a neuroblastoma cell line), and have shown that neuronal CD40 is functional, being intimately involved in neuronal development, survival, and maturation (Tan et al., “CD40 is expressed and functional on neuronal cells,” EMBO J. (2002) 21:643-52). Given our in vivo findings, we wished to determine whether CD40L could directly act on neurons to modulate APP processing. […] To confirm whether this reduction in α-CTF might be associated with amyloidogenic processing of APP, we measured secreted Aβ in conditioned media. […]
ELISA analysis. […] Total Aβ species were detected by acid extraction of brain homogenates in 5 M guanidine buffer (Johnson-Wood et al., “Amyloid precursor protein processing and A beta42 deposition in a transgenic mouse model of Alzheimer disease,” Proc. Natl. Acad. Sci. USA (1997) 94:1550-55), followed by a 1:10 dilution in lysis buffer. Aβ1-40, Aβ1-42, and total Aβ (estimated by summing Aβ1-40 and Aβ1-42 values) were quantified in these samples using the Aβ1-40 and Aβ1-42 enzyme-linked immunosorbent assay (ELISA) kits (QCB) in accordance with the manufacturer's instruction, except that standards were diluted such that the final concentration included 0.5 M guanidine buffer. […]

[4] = test system: N2a cell line that stably overexpresses the human wild-type APP-751 transgene; assay: α-CTF by Western blot in N2a cells overexpressing APP-751; settings: CD40L treatment over time
Text: We have recently identified CD40 on neurons and neuron-like cells (including the N2a neuroblastoma cell line), and have shown that neuronal CD40 is functional, being intimately involved in neuronal development, survival, and maturation (Tan et al., “CD40 is expressed and functional on neuronal cells,” EMBO J. (2002) 21:643-52). Given our in vivo findings, we wished to determine whether CD40L could directly act on neurons to modulate APP processing. An N2a cell line was established that stably overexpresses (by ˜3 fold) the human wild-type APP-751 transgene (Xia et al., “Enhanced production and oligomerizatio of the 42-residue amyloid beta-protein by Chinese hamster ovary cells stably expressing mutant presenilins,” J. Biol. Chem. (1997) 272:7977-82). […] To confirm whether this reduction in α-CTF might be associated with amyloidogenic processing of APP, we measured secreted Aβ in conditioned media. […] Thus CD40L is able to directly promote amyloidogenic APP processing in neurons or neuron-like cells. […] As the vast majority of cases of AD are associated with accumulation of Aβ from a normal APP sequence, the observation that the processing of normal APP can be pushed towards amyloidogenicity by CD40L is of interest. […]
Western blot. […] Densitometric analysis was perfromed using the Fluor-S Multilmager™ with Quantity One™ software (Bio-Rad). […]

[5] = 24 hour treatment, 2 μg/mL, relative to heat-inactivated CD40L

Row | Molecule | alterations in APP CTFs [1] | alterations in secretion of Aβ species [2] | ratio of APP β-CTF to α-CTF ([1]; 2 μg/mL, serum-free conditions, 24 hours, versus heat-inactivated CD40L) | secreted Aβ1-40 levels in conditioned media [3] | secreted Aβ1-42 levels in conditioned media [3] | increase in secreted Aβ1-40 levels [2, 5] | increase in secreted Aβ1-42 levels [2, 5] | α-CTF by Western blot [4]
1 | TNF-α [reference compound] | did not observe alterations | did not observe alterations |  |  |  |  |  | 
2 | transforming growth factor-β1: additional control ligand [reference compound] | did not observe alterations | did not observe alterations |  |  |  |  |  | 
3 | B1 |  |  | increased ratio | time-dependent increase | time-dependent increase | ~85% | ~50% | time-dependent decrease
4 | B2 | did not observe alterations | did not observe alterations |  |  |  |  |  | 
